This data set has as its target NS1_Nuc WT (nuclease domain of NS1) (human parvovirus B19 (variant …, UniProt A0A097C0M3 2-176)). Kind of data set: EMSA; 1 mM EDTA. As to conditions: protein: recombinant, tags: His-SUMO removed by ULP1.

B1: 67-ori-top (ssDNA)
DNA: AAAATTTAAAAGAAGACACCAAATCAGATGCCGCCGGTCGCCGCCGGTAGGCGGGACTTCCGGTACA
On to B1, for which the Kd (label: 5'-FAM, single strand) was 12.3 µM.

B2: 67-ori-top/40-ori-bot (mixed)
DNA 1: AAAATTTAAAAGAAGACACCAAATCAGATGCCGCCGGTCGCCGCCGGTAGGCGGGACTTCCGGTACA
DNA 2: TGTACCGGAAGTCCCGCCTACCGGCGGCGACCGGCGGCAT
For B2, the Kd (label: 5'-FAM on 67-ori-top, partial duplex over NSBE1-NSBE4, top strand single-stranded elsewhere) was approximately 1 µM.
